Like-named read-outs stand apart in the source and are kept apart here.

This is an account of results in publication PMC4094350.

For one experiment, the target named is FAK FAT (UniProt Q05397). Briefly: ITC. The settings on record: cited from earlier work.
Experiment [1] has as its target GFP-Paxillin (UniProt P49023). Briefly: FRET or BRET. (In general: BRET reads energy transfer from a luciferase to a nearby fluorophore.)
The target in experiment [2] is GFP-Paxillin (UniProt P49023). Briefly: FRET or BRET. This is another data set of the same source.
Experiment [3] deals with GFP-Paxillin (UniProt P49023). Briefly: FRET or BRET. This is another data set of the same source.

Sequence of UniProt Q05397 (Q05397 914-1045): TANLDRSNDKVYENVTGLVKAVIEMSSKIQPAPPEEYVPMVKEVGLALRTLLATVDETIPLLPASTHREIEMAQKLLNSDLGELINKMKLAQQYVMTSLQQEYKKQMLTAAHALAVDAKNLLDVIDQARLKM

A word on the Kd: it is the constant that tells how readily two partners part at equilibrium. Take “paxillin LD peptide LD motif (from UniProt P49023)”: the Kd with FAK FAT was 10000 nM.
For the substance “FAT-mCherry (from UniProt P34152 1-1052) (domain or fragment)”, the Kd with GFP-Paxillin [1] is 209 nM; in the experiment with GFP-Paxillin [2], 367 nM; with GFP-Paxillin [3], 209 nM.
